This assay has as its target recombinant SARS-CoV-2 S protein ectodomain (residues 14-1211), 2P, furin site mutated, foldon, 8XHis (SARS-CoV-2) (UniProt P0DTC2). Put plainly: ELISA on coated antigen, anti-human IgG-HRP. (ELISA stands for enzyme-linked immunosorbent assay.)

For mAb 2B04 (antibody), the minimum positive concentration is under 5 µg/mL.

Source of the values: patent WO2021212049A2.
